We go through 39 sequences from the supplement of paper PMC7877785.

The nature of the data set: self-splicing fitness, log relative to wild type (ln ratio); higher = more splicing; Tetrahymena group I intron in knt gene, E. coli kanamycin selection, DiMSum; sequences stand for … in CUCUCU…GGAGGGAAAAGUUAUCAGGCAUGCACCUGGUAGCUAGUCUUUAAACCAAUAGAUUGCAUCGGUUUAAAAGGCAAGACCGUCAAAUUGCGGGAAAGGGGUCAACAGCCGUUCAGUACCAAGUCUCAGGGGAAACUUUGAGAUGGCCUUGCAAAGGGUAUGGUAAUAAGCUGACGGACAUGGUCCUAACCACGCAGCCAAGUCCUAAGUCAACAGAUCUUCUGUUGAUAUGGAUGCAGUUCACAGACUAAAUGUCGGUCGGGGAAGAUGUAUUCUUCUCAUAAGAUAUAGUCGGACCUCUCCUUAAUGGGAGCUAGCGGAUGAAGUGAUGCAACACUGGAGCCGCUGGGAACUAAUUUGUAUGCGAAAGUAUAUUGAUUAGUUUUGGAGUACUCGUGGUCG
An outline of the steps: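 Fitness was computed with DiMSum as the error-weighted combination of replicate fold changes, kanamycin versus none, each normalised to wild type. The library randomised all eight intron nucleotides of the P1ex region, with the intron placed in the knt kanamycin-resistance gene on pET-22b(+) in E. coli BL21(DE3). Six replicate transformations were grown overnight at 37°C or 30°C on LB agar with or without 25 μg/mL kanamycin, plus 100 μg/mL carbenicillin, 50 μM IPTG and 0.2% rhamnose. Pooled colonies were amplicon-sequenced on an Illumina HiSeq 2500.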

± gives the uncertainty stated by the source.

Turning to UCCCAGCAAUAUUACGCCGA, the “self-splicing fitness (ln)” value reads like this: (30 °C) -0.426 ± 0.1; (37 °C) 0.659 ± 0.13.
In the same order, the values of GCUCAGCAAUAUUACGAAUG are -1.59 ± 0.12 and -0.636 ± 0.14.
The matching figures for ACUCAGCAAUAUUACGUCGU: -1.42 ± 0.07 and -0.573 ± 0.081.
In the same order, the values of ACCCAGCAAUAUUACGUUAU are -1.91 ± 0.064 and -1.04 ± 0.081.
AGAUAGCAAUAUUACGCCCU: the “self-splicing fitness (ln)” value reads like this: (30 °C) -0.337 ± 0.19; (37 °C) 0.138 ± 0.21.
In the same order, the values of AACUAGCAAUAUUACGCUGG are -3.28 ± 0.4 and -2.34 ± 0.22.
In the same order, the values of GGCCAGCAAUAUUACGGACG are -0.421 ± 0.072 and 0.71 ± 0.1.
Take AAUGAGCAAUAUUACGGUCG: the “self-splicing fitness (ln)” value is -2.26 ± 0.14 (30 °C) and -1.62 ± 0.2 (37 °C).
In the same order, the values of UGGAAGCAAUAUUACGCGUC are -0.409 ± 0.2 and -1.89 ± 0.27.
With GUGGAGCAAUAUUACGGCCG, the “self-splicing fitness (ln)” value (30 °C) is -3.44 ± 0.28 and the “self-splicing fitness (ln)” value (37 °C) was -2.03 ± 0.22.
Consider UUGGAGCAAUAUUACGAACG, for which the “self-splicing fitness (ln)” value (37 °C) is -0.295 ± 0.28.
Consider AAAAAGCAAUAUUACGUGAA, for which the “self-splicing fitness (ln)” value is -1.24 ± 0.078 (30 °C) and -0.618 ± 0.11 (37 °C).
In the same order, the values of UGGGAGCAAUAUUACGAGAG are -3.13 ± 0.32 and -2.85 ± 0.36.
In the same order, the values of CUAAAGCAAUAUUACGACCA are -2.78 ± 0.23 and 0.487 ± 0.23.
For GUGCAGCAAUAUUACGGGAA, the “self-splicing fitness (ln)” value is -3.67 ± 0.25 (30 °C) and -1.9 ± 0.13 (37 °C).
In the same order, the values of AAUGAGCAAUAUUACGUUAG are -3.2 ± 0.21 and -2.3 ± 0.25.
In the same order, the values of AGCUAGCAAUAUUACGGCGA are -0.581 ± 0.081 and 0.0269 ± 0.12.
Consider UCCUAGCAAUAUUACGAUGC, for which the “self-splicing fitness (ln)” value is -2.85 ± 0.21 (30 °C) and -2.7 ± 0.29 (37 °C).
As to CGGGAGCAAUAUUACGGCUC, the “self-splicing fitness (ln)” value was -3 ± 0.3 (30 °C) and -2.12 ± 0.42 (37 °C).
In the same order, the values of UACAAGCAAUAUUACGUCAC are -3.37 ± 0.2 and -2.41 ± 0.17.
In the same order, the values of AUUCAGCAAUAUUACGCCAU are -1.46 ± 0.1 and -1.09 ± 0.1.
Consider CACUAGCAAUAUUACGGACC, for which the “self-splicing fitness (ln)” value (37 °C) is -1.8 ± 0.24.
On to ACUGAGCAAUAUUACGUCAA, for which the “self-splicing fitness (ln)” value by setting is: (30 °C) -3.09 ± 0.23; (37 °C) -2.31 ± 0.19.
For the sequence CUCUAGCAAUAUUACGAGUA, where the note is “37 °C”, the “self-splicing fitness (ln)” value was -1.18 ± 0.21.
On to GCUAAGCAAUAUUACGAAUG, for which the “self-splicing fitness (ln)” value is, setting by setting: (30 °C) -0.647 ± 0.082; (37 °C) -0.433 ± 0.11.
Turning to AAUGAGCAAUAUUACGCUUC, where the note is “37 °C”, the “self-splicing fitness (ln)” value was -1.71 ± 0.23.
Consider UAAGAGCAAUAUUACGAACG, for which, under “37 °C”, the “self-splicing fitness (ln)” value was -2.57 ± 0.41.
For ACUGAGCAAUAUUACGUGCG, the “self-splicing fitness (ln)” value is, setting by setting: (30 °C) -3 ± 0.13; (37 °C) -1.28 ± 0.11.
Take GAGCAGCAAUAUUACGUCAC: the “self-splicing fitness (ln)” value is -3.67 ± 0.18 (30 °C) and -1.3 ± 0.17 (37 °C).
The matching figures for AGUGAGCAAUAUUACGUCAG: -3 ± 0.21 and -2.56 ± 0.23.
On to AACAAGCAAUAUUACGCACG, for which the “self-splicing fitness (ln)” value (30 °C) was -1.31 ± 0.18 and the “self-splicing fitness (ln)” value (37 °C) was -0.33 ± 0.18.
The matching figures for UCCCAGCAAUAUUACGCAGC: -3.71 ± 0.29 and -3.19 ± 0.47.
The matching figures for GGAUAGCAAUAUUACGCGAC: -3.69 ± 0.36 and -1.92 ± 0.38.
In the case of GCCGAGCAAUAUUACGGCUU, the “self-splicing fitness (ln)” value (37 °C) is -2.08 ± 0.41.
On to CGUUAGCAAUAUUACGCGCC, for which the “self-splicing fitness (ln)” value by setting is: (30 °C) -2.21 ± 0.39; (37 °C) -1.05 ± 0.27.
In the case of AGAUAGCAAUAUUACGUUGG, the “self-splicing fitness (ln)” value was -4.65 ± 0.46 (30 °C) and -2.57 ± 0.2 (37 °C).
Turning to CUUUAGCAAUAUUACGAUGA, the “self-splicing fitness (ln)” value was -3.2 ± 0.25 (30 °C) and -2.01 ± 0.18 (37 °C).
In the case of UCUCAGCAAUAUUACGUAGC, the “self-splicing fitness (ln)” value is -1.31 ± 0.17 (30 °C) and -1.16 ± 0.23 (37 °C).
In the same order, the values of GAUGAGCAAUAUUACGAGUC are -4.11 ± 0.33 and -2.21 ± 0.19.
